Laboratory results published in paper PMC12107149 (Proceedings of the National Academy of Sciences of the …, 2022).

Molecular target: PU.1 DNA-binding domain (PU.1^DBD) (human, UniProt P17947 168-270)
Assay: NMR titration

B1: EWS low-complexity domain (EWS^LCD) (domain or fragment)
chain: ASTDYSTYSQAAAQQGYSAYTAQPTQGYAQTTQAYGQQSYGTYGQPTDVSYTQAQTTATYGQTAYATSYGQPPTGYTTPTAPQAYSQPVQGYGTGAYDTTTATVTTTQASYAAQSAYGTQPAYPAYGQQPAATAPTRPQDGNKPTETSQPQSSTGGYNQPSLGYGQSNYSYPQVPGSYPMQPVTAPPSYPPTSYSSTQPTSYDQSSYSQQNTYGQPSSYGQQSSYGQQSSYGQQPPTSYPPQTGSYSQAPSQYSQQSSSYGQQ
B1: binds.
